Changes are numbered by the printed parent chain.
Columns and labels:
PDK1[Phe224Trp] = molecular target: T1, PDK1[Phe224Trp] (Homo sapiens, UniProt O15530, F224W); assay: PDK1 protein kinase activity test with T308tide substrate, Phe224Trp mutant; format: biochemical; conditions: PDK1 CD 50-359, T308tide as substrate
T1 construct: The catalytic domain (CD) of PDK1 50-359 and its mutants Phe224Trp and Thr226Trp were expressed in insect cells and purified; made in house; host or cells: insect cells
T1 sequence (O15530 50-359 F224W): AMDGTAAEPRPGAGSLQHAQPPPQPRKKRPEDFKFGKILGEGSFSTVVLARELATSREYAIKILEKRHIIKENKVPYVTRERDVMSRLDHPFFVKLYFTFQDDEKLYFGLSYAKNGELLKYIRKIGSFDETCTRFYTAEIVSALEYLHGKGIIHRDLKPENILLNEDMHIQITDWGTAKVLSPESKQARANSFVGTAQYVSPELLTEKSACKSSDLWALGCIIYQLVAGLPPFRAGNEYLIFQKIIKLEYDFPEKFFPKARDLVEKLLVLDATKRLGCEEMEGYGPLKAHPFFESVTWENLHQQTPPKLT
Description: (§1) Protein kinase activity tests: PDK1 activity tests were performed essentially as previously described (Biondi, R. M. et al., Embo. J. 20:4380-4390 (2001); Balendran, A. et al., J. Biol. Chem. 275:20806-20813 (2000); Biondi, R. M. et al., Embo. J. 19:979-988 (2000)) using T308tide as a substrate for PDK1. In brief, PDK1 activity assay was performed at room temperature (22° C.) in a 20 μl mix containing 50 mM Tris pH 7.5, 0.05 mg/ml BSA, 0.1% β-mercaptoethanol, 10 mM MgCl2, 100 μM [γ^32P]ATP (5-50 cpm/pmol), 0.003% Brij, 150 ng PDK1, and T308tide (from 0.1 to 1 mM). When appropriate, the PDK1 activity assay was performed in a 96 well format and 4 μl aliquots spotted with on p81 phosphocellulose papers (Whatmann) using ep motion 5070 (Eppendorf), washed in 0.01% phosphoric acid, dried, and then exposed and analysed using PhosphoImager technology (Typhoon, GE Healthcare). Activity measurements were performed in duplicates with less than 10% difference between pairs. Experiments were repeated at least twice. PDK1 specific activity at 22° C. was approximately 0.25 U/mg when the substrate concentration was 0.1 mM T308tide. […]

PDK1[Thr226Trp] = molecular target: T2, PDK1[Thr226Trp] (Homo sapiens, UniProt O15530, T226W); assay: PDK1 protein kinase activity test with T308tide substrate, Thr226Trp mutant; format: biochemical; conditions: PDK1 CD 50-359, T308tide as substrate
T2 construct: The catalytic domain (CD) of PDK1 50-359 and its mutants Phe224Trp and Thr226Trp were expressed in insect cells and purified; made in house; host or cells: insect cells
T2 sequence (O15530 50-359 T226W): T1 sequence (O15530 50-359 F224W) with W175F, T177W
Description: as §1

PDK1 CD wt = molecular target: T3, PDK1 CD wt (Homo sapiens, UniProt O15530); assay: Surface plasmon resonance (BiaCore) on biotin-P-HM-S6K chip; format: binding; conditions: protein pre-incubated with PIFtide
T3 construct: PDK1 CD (50-359), wt (0.35 μM), PDK1 [Phe224Trp] or PDK1 [Thr226Trp] were injected onto the system; GST (N); made in house; host or cells: insect cells
T3 sequence (O15530 50-359): T1 sequence (O15530 50-359 F224W) with W175F
Description: Surface Plasmon resonance (BiaCore) and alpha-screen interaction and displacement assays: Binding of GST-PDK1 to a P-HM-polypeptide derived from S6K1 shown in FIG. 6 was analysed by surface plasmon resonance on a BiaCore 3000 system using a streptavidin-coated Sensor chip (SA) and biotin-P-HM-polypeptide, as previously described (Biondi, R. M. et al., Embo. J. 20:4380-4390 (2001). The interaction of His-PDK1 with biotin-PIFtide and the displacement by compounds shown in FIG. 3 was performed using the alpha-screen Ni-Chelate kit (Perkin Elmer) on an Envision 2104 multilabel system (Perkin Elmer).
BiaCore analysis was performed as described previously (Biondi, R. M. et al., Embo. J. 19:979-988 (2000)). […] Since both mutants were performed on the same construct of PDK1, their mass should be very similar and therefore should also produce 600RU when all biotin-(P)HM-S6K polypeptides on the same chip are bound to the mutant PDK1 proteins. Unfortunately, when mutant PDK1 Phe224Trp and PDK1 Thr226Trp were analysed, the injection of the mutants at concentrations higher than 1.3 μM prompted unspecific effects, therefore making difficult the evaluation. […]

Sequence: REPRILSEEEQEMFRDFDYIADWC [PIFtide, polypeptide derived from the C-terminal 24 amino acids of the PDK1 substrate PRK2]
- activation of PDK1[Phe224Trp] (PDK1[Phe224Trp]): activated
- activation of PDK1[Thr226Trp] (PDK1[Thr226Trp]): not activated
- displacement by PIFtide of PDK1 binding to biotin-P-HM-S6K (PDK1 CD wt): displaced
